Measured values published in patent publication US20020173629A1.

Columns and labels:
[1] = molecular target: human EGF-r expressed on the surface of human carcinoma cells (A431, SW948) (human) (UniProt P00533); assay: inhibition of [125I]EGF binding to SW948 cells
[2] = molecular target: human EGF-r expressed on the surface of human carcinoma cells (A431, SW948) (human) (UniProt P00533); assay: inhibition of [125I]EGF (0.1 nM) binding to A431 cells
[3] = molecular target: human EGF-r expressed on the surface of human carcinoma cells (A431, SW948) (human) (UniProt P00533); assay: cell-based or functional assay
[4] = molecular target: Soluble EGF-r purified from A431 cell membranes (Sigma, E-3641) (human) (UniProt P00533); assay: BIAcore, solid phase, antigen immobilised at 228 RU

| Substance | IC50 [1] [nM] | IC50 [2] [nM] | IC50 of inhibition of A431 cell proliferation [3] [nM] | inhibition of EGF-induced tyrosine phosphorylation of EGFr in A431 cells [3] [nM] | inhibition of SW948 cell growth in vitro [3] [%] | Kd [4] [nM] |
| --- | --- | --- | --- | --- | --- | --- |
| E7.6.3 antibody (secreted by the hybridoma E7.6.3) | 0.9 | 3 | 0.125 | 133 | 100 | 0.057 |
| murine monoclonal antibody 528 |  | 15.2 | 0.66 |  |  |  |
